Results published in patent US20230270119A1, “BIOSTIMULANT AND BIOPROTECTIVE PEPTIDES AND THEIR USE IN AGRICULTURE” (priority 2020, published 2023).

B1: PS1-120: recombinant peptide contained in the amino-terminal region of the Prosystemin polypeptide, free of Systemin; expressed in E. coli (protein)
chain: MGTPSYDIKNKGDDMQEEPKVKLHHEKGGDEKEKIIEKETPSQDINNKDTISSYVLRDDTQEIPKMEHEEGGYVKEKIVEKETISQYIIKIEGDDDAQEKLKVEYEEEEYEKEKIVEKET
modifications: Peptide PS1-120
notes: recombinant peptide contained in the amino-terminal region of the Prosystemin polypeptide, free of Systemin; expressed in E. coli
B2: PS1-70: recombinant peptide contained in the amino-terminal region of the Prosystemin polypeptide, free of Systemin; expressed in E. coli (protein)
chain: MGTPSYDIKNKGDDMQEEPKVKLHHEKGGDEKEKIIEKETPSQDINNKDTISSYVLRDDTQEIPKMEHEE
modifications: Peptide PS1-70
notes: as for B1

Key:
[1] = tested on: Spodoptera littoralis larvae; test: Bioassay on Spodoptera littoralis larvae fed with peptide-treated tomato leaves; type: in vivo
Experimental: Briefly, S. littoralis larvae were grown in a climate chamber at 25° C., 70% relative humidity (RH), with a 16-hour light and 8-hour dark photoperiod and fed with an artificial diet until completion of the first moult. For the bioassays, 150 larvae for each thesis were grown on tomato leaves for the entire duration of the second instar to adapt them to the different diet. The newly moulted third-instar larvae up to the moult stage were fed with plants on which a composition comprising peptides PS1-70 and PS1-120 had been applied at 100 pM and 100 fM concentrations in 1×PBS buffer. Larvae fed with plants treated with 1×PBS buffer only were used as a control. Bioassays were carried out under the same environmental conditions, in 32-well plastic trays containing 1.5% (w/v) agar and 0.005% (w/v) methyl parahydroxybenzoate, which are useful for creating a humid environment for maintaining cell turgor of tomato leaves. Each experimental group consisted of 32 larvae. The survival of the larvae was monitored daily, and their weight every other day. […] A significant decrease in the survival of larvae fed with leaves of plants treated with the peptides of the invention compared to those fed with leaves of the control plants was also observed for both assays (FIGS. 10B and 10D). […] The same assay scheme was carried out by the present inventors by feeding S. littoralis larvae with leaves treated with the peptide PS1-70 and with peptides having the sequences SEQ ID NO. 3, 5, and 8 at femtomolar concentration. […] A significant decrease was also observed in the survival of larvae fed with peptide-treated leaves compared to those fed with the control leaves (FIG. 11B). […] 8, SEQ ID NO. 3, and SEQ ID NO. 5 (FIG. 11B).

[2] = tested on: Botrytis cinerea; test: Botrytis cinerea necrosis areas on treated eggplant leaves; type: in vivo, Botrytis cinerea on Solanum melongena; conditions: day 8, control 11 mm^2 (FIG. 12C)
Description: (§1) The present inventors also carried out tests aimed at determining the effects of exogenous application of the peptides of the invention, at picomolar and femtomolar concentrations, against the development of the necrotrophic fungus on Solanum melongena (eggplant) plants (FIG. 12C) and Vitis vinifera (vine) plants (FIG. 12D). […] The positive effect of the treatment was statistically significant from day 3 of inoculation of the pathogen to day 8 where values of 11 mm^2 were reached on the control leaves, unlike the treated leaves where values of 8.4 and 6.0 mm^2 were recorded on leaves treated with the peptides PS1-70 and PS1-120 at a concentration of 100 pM, and values of 6.2 and 4.10 mm^2 were recorded on leaves treated with said peptides at a concentration of 100 fM (FIG. 12C). Similar results were obtained on vine plants (FIG. 12D). The positive effect of the treatment was already statistically significant from day 1 of inoculation of the pathogen to day 8 where values of 43 mm^2 were reached on the control leaves, and values of 16.7 and 13.6 mm^2, respectively, were reached on leaves treated with the peptides PS1-70 and PS1-120 at a concentration of 100 pM, and values of 12 and 11.8 mm^2 were reached on leaves treated with said peptides at a concentration of 100 fM (FIG. 12D). Similar results were obtained on olive trees.

[3] = tested on: Botrytis cinerea; test: Botrytis cinerea necrosis areas on treated vine leaves; type: in vivo, Botrytis cinerea on Vitis vinifera; conditions: day 8, control 43 mm^2 (FIG. 12D)
Description: as §1

[4] = tested on: Alternaria alternata; test: Alternaria alternata necrosis areas on treated tomato leaves; type: in vivo; conditions: 100 fM
Experimental: For the performance of assays on the phytopathogenic Botrytis cinerea and Alternaria alternata fungi, the present inventors used spores of this microorganism obtained from cultures on solid PDA (Potato Dextrose Agar) sporulation substrate. The plates were inoculated with 20 μl of a conidial suspension at a concentration of 1×10^6 spores/ml and incubated for 15 days at 25° C. in the presence of diffused light, so as to obtain complete sporulation. The spores were then collected in 5 ml of sterile water and, in order to remove the mycelium, were filtered through glass wool, washed with sterile distilled water and collected by centrifugation at room temperature. The concentration of spores suitable for inoculation (10^5-10^7 spores/ml) was determined by the serial dilution method using a Burker cell counting chamber for spore counting.
The assay was carried out on a detached leaf by taking a compound leaf for each treated tomato plant and for each control plant. Each leaflet of the compound leaf was marked with 3 markers in order to guide the subsequent application of the spores and detection of the pathogen developing necrotic areas.
The present inventors also performed assays aimed at determining the effects of exogenous application of the peptides of the invention on tomato plants against the development of the necrotrophic Alternaria alternata fungus (FIG. 14).
The positive effect of the treatment was statistically significant from day 1 of inoculation of the pathogen to day 8 where values of 24 mm^2 were reached on the control leaves, unlike the treated leaves where values of 8.4 and 8.0 mm^2 were recorded on leaves treated with the peptides PS1-70 and PS1-120 at a concentration of 100 fM (FIG. 14A); and values of 17 mm^2 were recorded on the control leaves and values of 8.3 mm^2, 7.9 mm^2, 8.9 mm^2, and 7.8 mm^2 were recorded on leaves treated with the peptides PS1-70, SEQ ID NO.8, SEQ ID NO.3 and SEQ ID NO.5, respectively, at a concentration of 100 fM (FIG. 14B).

[5] = tested on: B. cinerea; type: cell-based, Botrytis cinerea
Experimental: 3, 5 and 8, and Trichoderma T22, (C) PS1-70 and PS1-120. The growth of the fungus was measured 24 hours after the addition of the peptides of the invention as the turbidity level of the medium (absorbance at 600 nm). The letters a, b indicate the statistical significance of the data (ANOVA), each letter representing a statistical group. Furthermore, as shown in FIGS. 22A and 22B, the growth of the B. cinerea fungus was not disrupted when the growth medium was added with the peptides PS1-70 and PS1-120 of the invention.

[6] = Biometric parameters of tomato plants irrigated with peptides; type: in vivo; conditions: 100 fM; for root surface (root area): 14 days of salt stress 150 mM, 15 days after irrigation (FIG. 20A); for growth (fresh weight) of the aerial part: absence of salt (FIG. 20B)
Experimental: FIG. 20 illustrates the effect of irrigation treatment with the peptides PS1-70, PS1-120 and SEQ ID NO.5 at a concentration of 100 fM on the biometric parameters of the tomato plant. […] The asterisks indicate the statistical significance of the data by Student's t-test (*p<0.05). A few biometric parameters are shown in FIG. 20, measured after 14 days of continuous salt stress (150 mM) and 15 days after irrigation with the peptides PS1-70, PS1-120 and SEQ ID NO.5 at 100 fM concentrations, and the respective controls.

[7] = day 13, leaves treated at 100 fM, control 44 mg (FIG. 10C)
[8] = day 15, 100 pM, control 96.87% (FIG. 10B)
[9] = day 15, leaves treated at 100 pM, control 38 mg (FIG. 10A)
[10] = day 8, control 24 mm^2 (FIG. 14A)

Row | Molecule | average weight of larvae [1, 7] [mg] | survival rate of larvae [1, 8] [%] | average weight of larvae [1, 9] [mg] | necrosis areas ([2]; 100 pM) [mm^2] | necrosis areas ([2]; 100 fM) [mm^2] | necrosis areas ([3]; 100 pM) [mm^2] | necrosis areas ([3]; 100 fM) [mm^2] | necrosis areas [4, 10] [mm^2] | growth of the B. cinerea fungus [5] | root surface (root area) [6] | growth (fresh weight) of the aerial part [6] | survival rate of larvae ([1]; day 13, 100 fM, control 100% (FIG. 10D)) [%] | average weight of larvae ([1]; day 13, femtomolar concentration, control 59 mg (FIG. 11A)) [mg] | survival rate of larvae ([1]; day 13, femtomolar concentration, control 100% (FIG. 11B)) [%] | necrosis areas ([4]; day 8, control 17 mm^2 (FIG. 14B)) [mm^2]
1 | B1 | 12 | 31.25 | 20 | 6.0 | 4.10 | 13.6 | 11.8 | 8.0 | not disrupted | greater root surface | able to promote the growth of the aerial part of the plant |  |  |  | 
2 | B2 | 11 | 34.37 | 15 | 8.4 | 6.2 | 16.7 | 12 | 8.4 | not disrupted | greater root surface | able to promote the growth of the aerial part of the plant | 0 | 22 | 31.25 | 8.3
